Data published in PMC11734622.

Molecular target: HA-tagged human GABARAP [human]
Experiment: co-immunoprecipitation (anti-HA IP), immunoblot quantification
Conditions: 2 h, RAW 264.7 LRRK2 KO cells, read off a plot

Row | Substance | response (DMSO, parent: 1) | response (DMXAA 100 µg/mL, parent: 3.5)
1 | Halo-tagged human LRRK2 (WT) mutant W109A; L112A [human] / HA-tagged human GABARAP [human] chain 1 W109A, chain 1 L112A | 0.25 A.U. | 0.9 A.U.
2 | Halo-tagged human LRRK2 (WT) mutant W109A; L112A; W875A; I878A [human] / HA-tagged human GABARAP [human] chain 1 W109A, chain 1 L112A, chain 1 W875A, chain 1 I878A | 0.4 A.U. | 0.85 A.U.
3 | Halo-tagged human LRRK2 (WT) mutant W875A; I878A [human] / HA-tagged human GABARAP [human] chain 1 W875A, chain 1 I878A | 1.1 A.U. | 1.7 A.U.
